Reference: publication PMC11109247
Values joined by “and” are separate entries in the source; they are usually repeats but may differ in a detail not shown here. Equal values may be shown once.

Key:
[1] = target: HeV G ectodomain (Hendra virus attachment glycoprotein, residues 71-604), Strep-tagged (Hendra virus) (UniProt O89343); assay: SDS-PAGE without reduction and boiling
[2] = target: prefusion soluble NiV F (sF; NiVBD fusion protein residues 26-482 with GCNt motif) (Nipah virus Bangladesh (NiVBD)); assay: BLI
[3] = target: prefusion soluble NiV F (sF; NiVBD fusion protein residues 26-482 with GCNt motif) (Nipah virus Bangladesh (NiVBD)); assay: MST
[4] = target: NiVMY G ectodomain (Nipah virus Malaysia attachment glycoprotein, residues 71-602), Strep-tagged (Nipah virus (Malaysia strain)) (UniProt Q9IH62); assay: SDS-PAGE without reduction and boiling

## HeV G ectodomain (Hendra virus attachment glycoprotein, residues 71-604), Strep-tagged (from UniProt O89343 71-604) (domain or fragment)
[1]
  stoichiometry N: 4 and 2

## P-59 (peptide of NiVBD G, 233-247 aa)
[2]
  Kd: 190 nM
[3]
  Kd: 5000 nM

## NiVMY G ectodomain (Nipah virus Malaysia attachment glycoprotein, residues 71-602), Strep-tagged (from UniProt Q9IH62 71-602) (domain or fragment)
[4]
  stoichiometry N: 4 and 2
